Laboratory results published in patent US20200079833A1 (AstraZeneca / MedImmune, published 2020).
Starred links: 1 amine or outer side, 2 acyl side, 3 side chain; linkers in the order of their positions; H or OH if unused. Non-standard residues stand in square brackets, D forms with d. Groups on a side chain read outwards from the residue. Primed or numbered codes have the meaning given here. No end group written: not given here. *: point of attachment. γGlu = O=C(O)[C@H](CCC(=O)[*:2])N[*:1]; Stearoyl = CCCCCCCCCCCCCCCCCC(=O)*; αMeF = C[C@](N)(Cc1ccccc1)C(=O)O; αMeK = C[C@](N)(CCCCN)C(=O)O; αMeS = C[C@](N)(CO)C(=O)O; PEG2′ = not defined here; Aib = CC(C)(N)C(=O)O

Molecular target: T1, GLP-1R (INS1e assay) (UniProt P32301 22-463, limits assumed)
T1 sequence (looked up): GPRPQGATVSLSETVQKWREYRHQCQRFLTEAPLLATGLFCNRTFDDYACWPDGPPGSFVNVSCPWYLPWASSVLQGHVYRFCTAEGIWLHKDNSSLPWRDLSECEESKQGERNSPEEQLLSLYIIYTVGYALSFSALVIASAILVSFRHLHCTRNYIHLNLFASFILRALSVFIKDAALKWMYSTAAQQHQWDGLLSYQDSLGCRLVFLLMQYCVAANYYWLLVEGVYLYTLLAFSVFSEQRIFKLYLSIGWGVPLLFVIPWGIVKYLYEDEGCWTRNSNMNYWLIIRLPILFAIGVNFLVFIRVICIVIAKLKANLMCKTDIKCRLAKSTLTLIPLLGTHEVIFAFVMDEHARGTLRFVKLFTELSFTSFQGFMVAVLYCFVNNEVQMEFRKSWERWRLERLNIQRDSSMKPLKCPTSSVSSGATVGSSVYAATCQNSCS
Experiment: cell-based or functional assay

Row | Binder | INS1e assay EC50 GLP-1 R n1 [nM] | INS1e assay EC50 GLP-1 R n2 [nM] | INS1e assay EC50 Mean pM GLP-1R [pM]
1 | H[Aib]EGS[αMeF]TSDVSK([PEG2′-PEG2′-PEG2′-Stearoyl])YLEGEAA[αMeK]E[αMeF]IA[αMeF]VVEGG-NH2 [SEQ ID NO 64] | 0.0068 | 0.0121 | 9
2 | H[Aib]EGS[αMeF]TSDVSK([PEG2′-PEG2′-γGlu-Stearoyl])YLEGEAA[αMeK]E[αMeF]IA[αMeF]VVEGG-NH2 [SEQ ID NO 60] | 14.3 | 12.1 | 13200
3 | H[Aib]EGS[αMeF]TSDV[αMeS]S[αMeF]LEGEAA[αMeK]EFIK([PEG2′-PEG2′-γGlu-Stearoyl])WVVEGG-NH2 [SEQ ID NO 68] | 2.69 | 4.87 | 3780
4 | H[Aib]EGS[αMeF]TSDV[αMeS]S[αMeF]LEGEAAK([PEG2′-PEG2′-PEG2′-Stearoyl])E[αMeF]IAWVV[αMeK]GG-NH2 [SEQ ID NO 55] | 0.0125 | 0.0101 | 11
5 | H[Aib]EGS[αMeF]TSDVSK([PEG2′-PEG2′-PEG2′-Stearoyl])YLEGEAAKE[αMeF]IA[αMeF]VVEGG-NH2 [SEQ ID NO 61] | 0.00557 | 0.0135 | 10
6 | H[Aib]EGS[αMeF]TSDVSK([PEG2′-PEG2′-PEG2′-Stearoyl])YLEGEAA[Aib]E[αMeF]IA[αMeF]VVEGG-NH2 [SEQ ID NO 63] | 0.0231 | 0.0392 | 31
7 | H[Aib]EGS[αMeF]TSDV[αMeS]S[αMeF]LEGEAAKEFIK([PEG2′-PEG2′-γGlu-Stearoyl])WVVEGG-NH2 [SEQ ID NO 65] | 2.57 | 3.74 | 3160
8 | H[Aib]EGS[αMeF]TSDVSK([PEG2′-PEG2′-PEG2′-Stearoyl])YLEGEAAEE[αMeF]IA[αMeF]VVEGG-NH2 [SEQ ID NO 62] | 0.209 | 0.0837 | 146
9 | H[Aib]EGS[αMeF]TSDV[αMeS]S[αMeF]LEGEAAEEFIK([PEG2′-PEG2′-γGlu-Stearoyl])WVVEGG-NH2 [SEQ ID NO 66] | 45.6 | 38.8 | 42200
10 | H[Aib]EGS[αMeF]TSDV[αMeS]S[αMeF]LEGEAAK([PEG2′-PEG2′-PEG2′-Stearoyl])E[αMeF]IA[αMeF]VVKGG-NH2 [SEQ ID NO 56] | 0.0352 | 0.077 | 56
11 | H[Aib]EGS[αMeF]TSDV[αMeS]S[αMeF]LEGEAA[Aib]EFIK([PEG2′-PEG2′-γGlu-Stearoyl])WVVEGG-NH2 [SEQ ID NO 67] | 6.15 | 18.1 | 12100
